Positions of bridges follow the written chain, without caps; N, C: chain ends. No end group written: not given here.
Assays:
[1] = target: T1, sIGF-1R-Fc (UniProt P08069 31-935); experiment: phage ELISA
T1 construct: also called slGF-1R-Fc; not shown: Fc part not described

[2] = target: T2, soluble human insulin receptor (IR-Fc) (human, UniProt P06213 28-956); experiment: assay not given
T2 construct: extracellular domain; retains the beta-alpha-alpha-beta structure; also called sIR; sIR-Fc

[3] = target: human IGF-1 receptor (HIGF-1R) (human, UniProt P08069 31-1367); experiment: displacement of 125I-IGF-1 from HIGF-1R

Does HPTSKEIYAKLLGGGS (on phage; motif 7) [IM449 (Δ-12-3 #43)] bind [1]?
Result: no binding

APTFYAWFNQQTGGGS (on phage; also called ~J229) [IM445 (Δ-12-3 #6)] was tested. Which IC50 [2] did it give?
The IC50 was roughly 2400 nM.

Does HPSLSDMRWILLGGGS (on phage; motif 7) [IM459 (Δ-12-3* #60)] bind [1]?
Result: no binding

Does HPSTNQMLMKLFGGGS (on phage; motif 7) [IM450 (Δ-12-3 #28)] bind [1]?
Result: no binding

B1: C1 peptide (peptide)
peptide: DYKDCWARPCGDAANFYDWFVQQASKK
modifications: disulfide 5-10 (inferred)
notes: synthetic; biotinylated where printed as b-C1 or D112; also called D112; b-C1
Does B1 bind [3]?
Result: binds

Does HPPLEHLKAFLLGGGS (on phage; motif 7; also called ~J228) [IM452 (Δ-12-3 #23)] bind [1]?
Result: no binding

Does HPPLSELKLFLIGGGS (on phage; motif 7) [IM451 (Δ-12-3 #34)] bind [1]?
Result: no binding
